Assay [1] deals with β-arrestin-2-RLuc, P32121. Description: BRET. The conditions noted are these: chain shown with the change, HEK293A cells, read off a plot. Background: In BRET a luciferase serves as donor, and the signal depends on an acceptor being close.
Assay [2] concerns the target β-arrestin-2-RLuc, P32121. Description: BRET. The conditions noted are these: chain shown with the change, HEK293A cells, read off a plot. This is another data set of the same source.
In another assay the target is [125I]-Angiotensin II. Description: competitive radioligand binding assay. The note with it: chain shown with the change, value read from the curve at the x tick, read off a plot.
Assay [3] has as its target β-arrestin-2-RLuc, P32121. Description: BRET. The note with it: chain shown with the change, HEK293A cells, read off a plot. The source holds these as a separate data set.
Where [4] appears, read: Ang II (1 μM), parent: est. 0.672.
[5] abbreviates: CTL (no stimulation), parent: est. 0.624.
Where [6] appears, read: Hcy (100 μM), parent: est. 0.632.
[7] abbreviates: no stimulation (open bar, labelled WT in the key), parent: est. 0.624.

Positions count from the first letter of the chain named. Names and notes keep the numbering of the source.

Sequence of β-arrestin-2-RLuc, P32121 (P32121 whole entry): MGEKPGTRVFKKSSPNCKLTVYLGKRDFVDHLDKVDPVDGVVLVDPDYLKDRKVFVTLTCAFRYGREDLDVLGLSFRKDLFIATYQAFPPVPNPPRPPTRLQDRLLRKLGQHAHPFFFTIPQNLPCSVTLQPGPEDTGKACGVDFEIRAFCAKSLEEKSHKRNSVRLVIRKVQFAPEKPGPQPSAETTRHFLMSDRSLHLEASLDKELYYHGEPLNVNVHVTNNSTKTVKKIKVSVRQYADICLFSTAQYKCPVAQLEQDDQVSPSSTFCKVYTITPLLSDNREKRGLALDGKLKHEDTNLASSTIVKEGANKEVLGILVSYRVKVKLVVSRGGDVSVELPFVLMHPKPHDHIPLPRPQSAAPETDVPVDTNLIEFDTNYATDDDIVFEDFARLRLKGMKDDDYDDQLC

B1: AT1-YFP (wild type), P30556 R167N (protein)
chain: MILNSSTEDGIKRIQDDCPKAGRHNYIFVMIPTLYSIIFVVGIFGNSLVVIVIYFYMKLKTVASVFLLNLALADLCFLLTLPLWAVYTAMEYRWPFGNYLCKIASASVSFNLYASVFLLTCLSIDRYLAIVHPMKSRLRRTMLVAKVTCIIIWLLAGLASLPAIIHNNVFFIENTNITVCAFHYESQNSTLPIGLGLTKNILGFLFPFLIILTSYTLIWKALKKAYEIQKNKPRNDDIFKIIMAIVLFFFFSWIPHQIFTFLDVLIQLGIIRDCRIADIVDTAMPITICIAYFNNCLNPLFYGFLGKKFKRYFLQLLKYIPPKAKSHSNLSTKMSTLSYRPSDNVSSSTKKPAPCFEVE
For B1, the response is 0.657 Δ net BRET in assay [1] (setting [4]), 0.621 Δ net BRET in assay [1] (setting [5]), 0.621 Δ net BRET in assay [2] (setting [5]) and 0.62 Δ net BRET in assay [2] (setting [6]).

B2: human angiotensin II type 1 (AT1) receptor, P30556 C289S (protein)
chain: B1 chain with N167R, C289S
In the case of B2, the response (% specific binding) in assay [125I]-Angiotensin II (competing Hcy at log [Hcy] (M) = -2, parent: est. 33) came to 31; in assay [125I]-Angiotensin II (competing Hcy at log [Hcy] (M) = -4, parent: est. 46), 76; in assay [125I]-Angiotensin II (competing Hcy at log [Hcy] (M) = -6, parent: est. 97), 100.

B3: AT1-YFP (wild type), P30556 R167K (protein)
chain: B1 chain with N167K
For B3, the response is 0.621 Δ net BRET in assay [1] (setting [4]), 0.618 Δ net BRET in assay [1] (setting [5]), 0.619 Δ net BRET in assay [2] (setting [5]) and 0.618 Δ net BRET in assay [2] (setting [6]).

B4: human angiotensin II type 1 (AT1) receptor, P30556 R167A (protein)
chain: B1 chain with N167A
On to B4, for which the response (% specific binding) in assay [125I]-Angiotensin II (competing Hcy at log [Hcy] (M) = -2, parent: est. 34) was found to be 34; in assay [125I]-Angiotensin II (competing Hcy at log [Hcy] (M) = -4, parent: est. 45), 66; in assay [125I]-Angiotensin II (competing Hcy at log [Hcy] (M) = -6, parent: est. 98), 100.

B5: AT1-YFP (wild type), P30556 R167A (protein)
chain: B1 chain with N167A
Take B5: the response is 0.628 Δ net BRET in assay [1] (setting [4]), 0.629 Δ net BRET in assay [1] (setting [5]), 0.626 Δ net BRET in assay [2] (setting [5]) and 0.622 Δ net BRET in assay [2] (setting [6]).

B6: AT1-YFP (wild type), P30556 C289S (protein)
chain: B1 chain with N167R, C289S
For the molecule B6, the response in assay [2] (setting [4]) was 0.69 Δ net BRET; in assay [2] (setting [7]), 0.624 Δ net BRET; in assay [3] (setting [6]), 0.623 Δ net BRET; in assay [3] (setting [7]), 0.623 Δ net BRET.

The record behind these values is PMC5750214.
